Data from PMC5457526.

Columns and labels:
[1] = target: constitutive dimer mutant NT_(E79QE84QE119Q) of the E. australis MaSp1 N-terminal domain (Euprosthenops australis); experiment: SEC; Superdex 75, 2 mg ml^-1, 20 mM Tris, 150 mM NaCl, 1 mM EDTA, pH 8, room temperature; monomer to dimer
[2] = target: constitutive dimer mutant NT_(E79QE84QE119Q) of the E. australis MaSp1 N-terminal domain (Euprosthenops australis); experiment: SEC; Superdex 75, 2 mg ml^-1, 20 mM MES, 150 mM NaCl, 1 mM EDTA, pH 5.5, room temperature; monomer to dimer
[3] = target: recombinant fragment human surfactant protein D (human); experiment: native MS; ESI-MS of SEC separated protein in 100 mM ammonium acetate, pH 7.5
[4] = target: recombinant fragment human surfactant protein D (human); experiment: SEC; Superdex 200, 1.5 mg ml^-1, 20 mM Tris, 150 mM NaCl, 1 mM EDTA, pH 8
[5] = target: wild-type N-terminal domain (NT) of Euprosthenops australis major ampullate spidroin protein (MaSp) 1 (Euprosthenops australis); experiment: SEC; Superdex 75, 2 mg ml^-1, 20 mM MES, 150 mM NaCl, 1 mM EDTA, pH 5.5, room temperature; monomer to dimer

constitutive dimer mutant NT_(E79QE84QE119Q) of the E. australis MaSp1 N-terminal domain (domain or fragment)
stoichiometry N [1]: 2
stoichiometry N [2]: 2

recombinant fragment human surfactant protein D (domain or fragment)
stoichiometry N [3]: 3
stoichiometry N [4]: 3

wild-type N-terminal domain (NT) of Euprosthenops australis major ampullate spidroin protein (MaSp) 1 (domain or fragment)
stoichiometry N [5]: 2
